# Test results taken from article PMC12311003, “Biochemical characterization of a novel purified lectin extracted from Pleurotus ostreatus mushroom for its antiviral activity” (Scientific Reports, 2025).
# What was measured:
# [1] = target: T1, HBV polymerase (Hepatitis B virus ayw/Japan/JYW796/1988, UniProt Q9QMI1); assay: [3H]TTP incorporation, scintillation counting; assay type: biochemical
# T1 construct: gene P
# [2] = target: HCV NS3/NS4A protease (Hepatitis C virus (isolate BK), UniProt P26663); details: NS4A/NS4B-derived fluorogenic peptide substrate, 30 min, 37 °C; used as comparator drug
# Sequence of HCV NS3/NS4A protease (P26663 1027-1657): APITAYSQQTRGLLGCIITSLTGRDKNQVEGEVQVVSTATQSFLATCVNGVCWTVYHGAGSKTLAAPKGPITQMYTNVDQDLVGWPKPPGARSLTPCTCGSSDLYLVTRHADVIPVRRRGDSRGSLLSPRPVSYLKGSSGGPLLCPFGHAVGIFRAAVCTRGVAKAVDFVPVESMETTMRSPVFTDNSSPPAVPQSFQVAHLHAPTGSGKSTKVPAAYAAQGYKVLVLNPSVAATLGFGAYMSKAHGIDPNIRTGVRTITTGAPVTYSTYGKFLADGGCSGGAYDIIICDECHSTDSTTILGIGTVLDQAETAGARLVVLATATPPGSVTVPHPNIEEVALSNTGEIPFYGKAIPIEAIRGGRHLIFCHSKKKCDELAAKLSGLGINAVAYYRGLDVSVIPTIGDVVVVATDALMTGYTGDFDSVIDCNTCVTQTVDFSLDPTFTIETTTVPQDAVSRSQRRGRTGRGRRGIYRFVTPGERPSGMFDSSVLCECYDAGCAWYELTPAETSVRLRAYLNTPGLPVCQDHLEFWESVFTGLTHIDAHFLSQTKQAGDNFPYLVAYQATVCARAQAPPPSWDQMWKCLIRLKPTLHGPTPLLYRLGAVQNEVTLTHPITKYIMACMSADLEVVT
# Sequence of HCV NS3/NS4A protease (P26663 1658-1711): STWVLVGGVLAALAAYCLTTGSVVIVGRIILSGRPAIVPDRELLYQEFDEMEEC
# [3] = target: CD81 (human (endogenous in PBMCs)) (UniProt P60033); assay: flow cytometry on cells; 1 x 10^6 PBMCs incubated 2 h with 12.5 µM POL, then anti-CD81-FITC antibody at 4 °C for 30 min; binding taken from the fall in unbound CD81
# Sequence of CD81 (human (endogenous in PBMCs)) (P60033 whole entry): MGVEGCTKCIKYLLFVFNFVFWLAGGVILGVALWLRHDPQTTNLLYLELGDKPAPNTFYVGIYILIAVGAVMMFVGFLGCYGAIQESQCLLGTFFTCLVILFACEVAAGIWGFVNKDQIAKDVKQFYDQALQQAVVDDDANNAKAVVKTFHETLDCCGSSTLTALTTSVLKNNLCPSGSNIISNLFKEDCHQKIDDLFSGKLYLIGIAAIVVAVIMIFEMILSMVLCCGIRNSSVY
# [4] = target: scavenger receptor class B-type I (SR-B1) (UniProt Q8WTV0); assay: AlphaScreen or HTRF
# Sequence of scavenger receptor class B-type I (SR-B1) (Q8WTV0 whole entry): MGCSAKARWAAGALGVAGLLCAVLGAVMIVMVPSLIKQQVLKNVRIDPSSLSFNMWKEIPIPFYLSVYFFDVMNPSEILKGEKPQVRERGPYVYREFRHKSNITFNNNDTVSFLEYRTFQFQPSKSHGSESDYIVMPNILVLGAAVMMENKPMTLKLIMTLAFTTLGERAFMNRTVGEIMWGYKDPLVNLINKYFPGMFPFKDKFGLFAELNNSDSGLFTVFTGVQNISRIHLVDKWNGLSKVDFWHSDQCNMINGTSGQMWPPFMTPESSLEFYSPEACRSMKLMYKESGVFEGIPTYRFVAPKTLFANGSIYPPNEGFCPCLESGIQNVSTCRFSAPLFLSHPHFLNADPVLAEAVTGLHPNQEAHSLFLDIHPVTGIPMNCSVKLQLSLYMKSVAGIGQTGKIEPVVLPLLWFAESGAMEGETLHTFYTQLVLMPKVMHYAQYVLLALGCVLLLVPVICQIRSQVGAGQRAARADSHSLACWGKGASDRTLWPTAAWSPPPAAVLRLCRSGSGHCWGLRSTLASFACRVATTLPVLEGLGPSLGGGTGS
# T1 sequence (Q9QMI1 whole entry): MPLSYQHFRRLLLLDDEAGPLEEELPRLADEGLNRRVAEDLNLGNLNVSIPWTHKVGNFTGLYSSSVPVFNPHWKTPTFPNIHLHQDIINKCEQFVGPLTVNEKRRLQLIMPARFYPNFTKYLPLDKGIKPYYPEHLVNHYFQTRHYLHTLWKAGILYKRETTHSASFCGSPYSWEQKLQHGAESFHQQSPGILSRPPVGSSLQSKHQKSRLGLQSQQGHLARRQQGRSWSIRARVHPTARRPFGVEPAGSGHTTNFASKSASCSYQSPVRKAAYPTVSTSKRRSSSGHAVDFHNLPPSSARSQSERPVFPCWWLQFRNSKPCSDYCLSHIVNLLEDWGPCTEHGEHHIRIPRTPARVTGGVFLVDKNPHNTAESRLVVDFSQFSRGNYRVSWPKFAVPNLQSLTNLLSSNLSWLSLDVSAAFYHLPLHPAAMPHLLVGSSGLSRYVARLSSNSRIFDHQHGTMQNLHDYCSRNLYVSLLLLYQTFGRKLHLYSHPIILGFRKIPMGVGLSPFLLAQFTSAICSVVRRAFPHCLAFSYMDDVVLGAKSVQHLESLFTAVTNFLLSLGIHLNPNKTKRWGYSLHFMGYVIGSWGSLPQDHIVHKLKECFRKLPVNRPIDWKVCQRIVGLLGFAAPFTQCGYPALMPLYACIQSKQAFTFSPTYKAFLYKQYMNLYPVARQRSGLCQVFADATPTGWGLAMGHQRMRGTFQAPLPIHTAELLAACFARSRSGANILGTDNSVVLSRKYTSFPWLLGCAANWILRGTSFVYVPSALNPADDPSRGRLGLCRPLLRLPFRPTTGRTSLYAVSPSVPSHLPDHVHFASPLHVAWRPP
compound,measurement,setting,value
"Nc1ccn([C@@H]2CS[C@H](CO)O2)c(=O)n1 [LAM, lamivudine]",IC50,[1],6.52 nM
"CC(C)OC(=O)[C@H](C)N[P@](=O)(OC[C@H]1O[C@@H](n2ccc(=O)[nH]c2=O)[C@](C)(F)[C@@H]1O)Oc1ccccc1 [SOF, sofosbuvir]",IC50,[2],15.5 nM
Pleurotus ostreatus lectin (POL) (natural protein),percentage of binding to CD81 at 12.5 µM,[3],58.8%
same,IC50,[4],10.1 nM
same,Kd,[4],3.6 nM
same,Ki,[4],3.03 nM
